According to patent publication US8304189, “Nucleic acid molecules containing recombination sites and methods of using the same” (Life Technologies Corporation):

Molecular target: Vaccinia DNA topoisomerase I (Vaccinia virus, UniProt P68698 P68698:1-314)
Assay: covalent charging of vector at CCCTT, 37 C 15 min, NEB buffer 1; charged vector cloned the test insert with 93.6-95.1% efficiency
Conditions: ligated to EcoRI-cut pCR8/GW ends
Experimental: TOPO charging. To 5 μg of ligated DNA, 3 μg of TOPO-5 oligonucleotide (5'-CAACA CTATC GGAAT A-3' (SEQ ID NO: 66), phosphorylated on the 5' end), 10 μl 5× NEB #1 (New England Biolabs, Inc., Beverly, Mass. cat. no. M0202S), and 5 μg of Vaccinia Topoisomerase I was added and the volume adjusted to 50 μl with water. This reaction was incubated at 37° C. for 15 minutes before addition of 5 μl of 10× TOPO Stop Buffer (1 M Tris-HCl, pH 7.5, 500 mM EDTA). The TOPO adapted vector was then gel purified and quantified using the Hoechst dye assay.
Testing of TOPO cloning efficiency. TOPO cloning efficiency was determined using a 500 bp PCR fragment containing a bacterial lac promoter driving the lacZ alpha fragment, this positive control fragment is found in some of Invitrogen's TOPO T/A cloning kits, for example, cat. no. K4300-01. Cloning of this fragment generated blue colonies on X-gal plates and colonies without the cloned fragment were white. The ratio of the total number of blue colonies to the total number of colonies was representative of the efficiency of the TOPO reaction. Twenty nanograms of the Taq polymerase generated 500 bp PCR product was used per TOPO reaction.
T/A TOPO QC testing. The pCR8/GW/TOPO system was tested by TOPO cloning a Platinum taq-generated 500 bp test insert and selected ORFs into pCR8/GW/TOPO. TOPO cloning efficiency was measured using standard QC procedures. […]

B1: TOPO adapter duplex (TOPO-1/TOPO-5/TOPO-4) (dsDNA)
DNA 1: AATTCGCCCTTATTCCGATAGTG
DNA 2: CAACACTATCGGAATA
DNA 3: AGGGCG
modifications: 5'-phosphate on TOPO-5
binding result: binds
